The supplement of paper PMC10567573

B1: USP39 (parent)
chain: FQGSMRIFTKKLPHPDLPAEEKEQ

Variants of: B1
Assay: protein stability index of a GFP-peptide fusion (GPS, HEK-293T) (PSI 1-6); higher = more stable
Details: c terminus: a fixed tail appended
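Further: lentivirally expressed fusions sorted by FACS into six bins by GFP to DsRed ratio, PSI derived from sequencing read proportions per bin multiplied by bin number.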

In order of rising protein stability index:
1. FQGSMRIFTKKLPHPDLPAEEHEQ [K22H]  1.22
2. FQGSMRIFTKKLPHPDLPYEEKEQ [A19Y]  1.34
3. FQGSMRIFTKKLPHPDLPIEEKEQ [A19I]  1.53
4. FQGSMRIFTKKLPHPDLPAEEYEQ [K22Y]  1.54
5. FQGSMRIFTKKLPHPDLPWEEKEQ [A19W]  1.58
6. FQGSMRIFTKKLPHPDLPAEEQEQ [K22Q]  1.62
7. FQGSMRIFTKKLPHPDLPGEEKEQ [A19G]  1.63
8. FQGSMRIFTKKLPHPDLPMEEKEQ [A19M]  1.63
9. FQGSMRIFTKKLPHPDLPREEKEQ [A19R]  1.64
10. FQGSMRIFTKKLPSPDLPAEEKEQ [H14S]  1.65
11. FQGSMRIFTKKLPHPDKPAEEKEQ [L17K]  1.66
12. FQGSMRIFTKKLPHPDLPTEEKEQ [A19T]  1.68
13. FQGSMRIFTKKLPHPDLPAEECEQ [K22C]  1.69
14. FQGSMRIFTKKLPHPDLIAEEKEQ [P18I]  1.7
15. FQGSMRIFTKKLPHPALPAEEKEQ [D16A]  1.7
16. FQGSMRIFTKKLPHPDLVAEEKEQ [P18V]  1.71
17. FQGSMRIFTKKLPHPDLPKEEKEQ [A19K]  1.73
18. FQGSMRIFTKKLPHPDLYAEEKEQ [P18Y]  1.74
19. FQGSMRIFTKKLPHPDLLAEEKEQ [P18L]  1.75
20. FQGSMRIFTKKLPKPDLPAEEKEQ [H14K]  1.77
21. FQGSMRIFTKKLPHPDLPAEELEQ [K22L]  1.78
22. FQGSMRIFTKKLPQPDLPAEEKEQ [H14Q]  1.78
23. FQGSMRIFTKKLPHPDLPNEEKEQ [A19N]  1.79
24. FQGSMRIFTKKLPHPDLEAEEKEQ [P18E]  1.8
25. FQGSMRIFTKKLPYPDLPAEEKEQ [H14Y]  1.8
26. FQGSMRIFTKKLPHPDLPFEEKEQ [A19F]  1.81
27. FQGSMRIFTKKLPHPDLHAEEKEQ [P18H]  1.82
28. FQGSMRIFTKKLPHPDLCAEEKEQ [P18C]  1.83
29. FQGSMRIFTKKLPHPSLPAEEKEQ [D16S]  1.85
30. FQGSMRIFTKKLPPPDLPAEEKEQ [H14P]  1.86
31. FQGSMRIFTKKLPHPDVPAEEKEQ [L17V]  1.88
32. FQGSMRIFTKKLPHPDLPAEESEQ [K22S]  1.88
33. FQGSMRIFTKKLPHPDLRAEEKEQ [P18R]  1.88
34. FQGSMRIFTKKLPHPDLTAEEKEQ [P18T]  1.88
35. FQGSMRIFTKKLPVPDLPAEEKEQ [H14V]  1.88
36. FQGSMRIFTKKLPHPDIPAEEKEQ [L17I]  1.89
37. FQGSMRIFTKKLPHPDRPAEEKEQ [L17R]  1.9
38. FQGSMRIFTKKLPHPDHPAEEKEQ [L17H]  1.92
39. FQGSMRIFTKKLPHPDLPAEETEQ [K22T]  1.93
40. FQGSMRIFTKKLPHPDLPAEEWEQ [K22W]  1.93
41. FQGSMRIFTKKLPHPDLDAEEKEQ [P18D]  1.93
42. FQGSMRIFTKKLPRPDLPAEEKEQ [H14R]  1.93
43. FQGSMRIFTKKLPHPDLPAEEIEQ [K22I]  1.94
44. FQGSMRIFTKKLPNPDLPAEEKEQ [H14N]  1.94
45. FQGSMRIFTKKLPHPKLPAEEKEQ [D16K]  1.94
46. FQGSMRIFTKKLPHPDMPAEEKEQ [L17M]  1.95
47. FQGSMRIFTKKLPHPDSPAEEKEQ [L17S]  1.95
48. FQGSMRIFTKKLPHPDPPAEEKEQ [L17P]  1.96
49. FQGSMRIFTKKLPHPDLPCEEKEQ [A19C]  1.96
50. FQGSMRIFTKKLPHPDLPAEEFEQ [K22F]  1.96
51. FQGSMRIFTKKLPHPDLNAEEKEQ [P18N]  1.98
52. FQGSMRIFTKKLPHPDLGAEEKEQ [P18G]  1.98
53. FQGSMRIFTKKLPHPDAPAEEKEQ [L17A]  1.99
54. FQGSMRIFTKKLPWPDLPAEEKEQ [H14W]  1.99
55. FQGSMRIFTKKLPHPDLKAEEKEQ [P18K]  2.01
56. FQGSMRIFTKKLPHPDWPAEEKEQ [L17W]  2.06
57. FQGSMRIFTKKLPHPDLMAEEKEQ [P18M]  2.06
58. FQGSMRIFTKKLPHPDLPDEEKEQ [A19D]  2.07
59. FQGSMRIFTKKLPHPDLAAEEKEQ [P18A]  2.07
60. FQGSMRIFTKKLPHPDLPSEEKEQ [A19S]  2.08
61. FQGSMRIFTKKLPHPDLPAEEDEQ [K22D]  2.08
62. FQGSMRIFTKKLPHPDLPAEENEQ [K22N]  2.09
63. FQGSMRIFTKKLPHPDLPAEEPEQ [K22P]  2.09
64. FQGSMRIFTKKLPHPDTPAEEKEQ [L17T]  2.1
65. FQGSMRIFTKKLPHPDLWAEEKEQ [P18W]  2.1
66. FQGSMRIFTKKLPHPDLPAEEEEQ [K22E]  2.11
67. FQGSMRIFTKKLPHPDLFAEEKEQ [P18F]  2.11
68. FQGSMRIFTKKLPHPDLPAEEGEQ [K22G]  2.13
69. FQGSMRIFTKKLPHPDLQAEEKEQ [P18Q]  2.15
70. FQGSMRIFTKKLPHPDGPAEEKEQ [L17G]  2.19
71. FQGSMRIFTKKLPHPQLPAEEKEQ [D16Q]  2.19
72. FQGSMRIFTKKLPHPDLSAEEKEQ [P18S]  2.21
73. FQGSMRIFTKKLPHPDLPAEEAEQ [K22A]  2.23
74. FQGSMRIFTKKLPHPDEPAEEKEQ [L17E]  2.24
75. FQGSMRIFTKKLPHPDLPHEEKEQ [A19H]  2.25
76. FQGSMRIFTKKLPHPDLPVEEKEQ [A19V]  2.25
77. FQGSMRIFTKKLPHPDLPLEEKEQ [A19L]  2.25
78. FQGSMRIFTKKLPHPDNPAEEKEQ [L17N]  2.26
79. FQGSMRIFTKKLPHPDLPQEEKEQ [A19Q]  2.31
80. FQGSMRIFTKKLPHPDDPAEEKEQ [L17D]  2.32
81. FQGSMRIFTKKLPHPDLPAEEMEQ [K22M]  2.32
82. FQGSMRIFTKKLPHPDCPAEEKEQ [L17C]  2.33
83. FQGSMRIFTKKLPHPDQPAEEKEQ [L17Q]  2.34
84. FQGSMRIFTKKLPHPDFPAEEKEQ [L17F]  2.36
85. FQGSMRIFTKKLPLPDLPAEEKEQ [H14L]  2.36
86. FQGSMRIFTKKLPMPDLPAEEKEQ [H14M]  2.36
87. FQGSMRIFTKKLPTPDLPAEEKEQ [H14T]  2.36
88. FQGSMRIFTKKLPHPDLPEEEKEQ [A19E]  2.37
89. FQGSMRIFTKKLPHPNLPAEEKEQ [D16N]  2.37
90. FQGSMRIFTKKLPHPDLPAEEVEQ [K22V]  2.48
91. FQGSMRIFTKKLPHPDYPAEEKEQ [L17Y]  2.5
92. FQGSMRIFTKKLPHPDLPPEEKEQ [A19P]  2.5
93. FQGSMRIFTKKLPHPDLPAEEREQ [K22R]  2.54
94. FQGSMRIFTKKLPHPTLPAEEKEQ [D16T]  2.64
